{"source": "paper PMC11259845", "about": "“Potent anti-coronaviral activity of pateamines and new insights into their mode of action”", "conditions_in_all_cases": "protein: recombinant; tags: N-terminal 6xHis, thrombin site", "key": {"eIF4A1(19-406) WT [1]": {"biological_target": "T1, eIF4A1(19-406) WT (human, UniProt P60842 19-406)", "T1 sequence (P60842 19-406)": "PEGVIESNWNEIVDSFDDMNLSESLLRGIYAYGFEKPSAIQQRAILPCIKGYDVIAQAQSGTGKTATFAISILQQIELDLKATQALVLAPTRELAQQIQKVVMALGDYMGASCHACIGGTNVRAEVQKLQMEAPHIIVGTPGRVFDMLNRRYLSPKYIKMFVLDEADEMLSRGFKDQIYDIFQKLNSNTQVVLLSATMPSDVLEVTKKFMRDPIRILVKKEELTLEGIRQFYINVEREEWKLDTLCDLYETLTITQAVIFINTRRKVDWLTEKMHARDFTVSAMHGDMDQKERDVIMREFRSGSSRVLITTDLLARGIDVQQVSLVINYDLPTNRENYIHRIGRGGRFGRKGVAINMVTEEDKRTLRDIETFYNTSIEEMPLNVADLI", "assay": "thermal shift assay; PatA, AMP-PNP, 5 mM Mg2+; TSA: 5 uM eIF4A1(19-406), 50 uM RNA, 1 mM AMP-PNP, 100 uM inhibitor, 75 uM SYPRO Orange, 20 mM HEPES-KOH pH 7.5, 100 mM KCl, 5 mM MgCl2, 1 mM DTT, 10% glycerol; melt 10-95 C"}, "eIF4A1(19-406) WT [2]": {"biological_target": "T1, eIF4A1(19-406) WT", "assay": "thermal shift assay; DMDAPatA, AMP-PNP, 5 mM Mg2+; TSA: 5 uM eIF4A1(19-406), 50 uM RNA, 1 mM AMP-PNP, 100 uM inhibitor, 75 uM SYPRO Orange, 20 mM HEPES-KOH pH 7.5, 100 mM KCl, 5 mM MgCl2, 1 mM DTT, 10% glycerol; melt 10-95 C"}, "eIF4A1(19-406) WT [3]": {"biological_target": "T1, eIF4A1(19-406) WT", "assay": "thermal shift assay; silvestrol, AMP-PNP, 5 mM Mg2+; TSA: 5 uM eIF4A1(19-406), 50 uM RNA, 1 mM AMP-PNP, 100 uM inhibitor, 75 uM SYPRO Orange, 20 mM HEPES-KOH pH 7.5, 100 mM KCl, 5 mM MgCl2, 1 mM DTT, 10% glycerol; melt 10-95 C"}}}
{"binder": "UGUGUGUGUG (ssRNA)", "note": "[(UG)5]", "values": [{"measurement": "binding result", "setting": "eIF4A1(19-406) WT [1]", "value": "binds"}, {"measurement": "binding result", "setting": "eIF4A1(19-406) WT [2]", "value": "binds"}]}
{"binder": "AGAGAGAGAG (ssRNA)", "note": "[(AG)5]", "values": [{"measurement": "binding result", "setting": "eIF4A1(19-406) WT [1]", "value": "binds"}, {"measurement": "binding result", "setting": "eIF4A1(19-406) WT [3]", "value": "binds"}]}
{"binder": "GAGAGAGAGA (ssRNA)", "note": "[(GA)5]", "values": [{"measurement": "binding result", "setting": "eIF4A1(19-406) WT [1]", "value": "binds"}, {"measurement": "binding result", "setting": "eIF4A1(19-406) WT [3]", "value": "binds"}]}
